Key:
Nogo66 + sNogoR344-Fc = target: T1, Nogo66 + sNogoR344-Fc (Rattus norvegicus, UniProt Q99M75, A303T/C287S/C43R/E284G/T53A); test: mAb/Fab inhibition of Nogo66 binding to sNogoR344-Fc (ELISA)
T1 construct: amino acid residues 26-344 of rat Nogo receptor-1; made in house
T1 sequence (Q99M75 26-344 C43R/T53A/E284G/C287S/A303T): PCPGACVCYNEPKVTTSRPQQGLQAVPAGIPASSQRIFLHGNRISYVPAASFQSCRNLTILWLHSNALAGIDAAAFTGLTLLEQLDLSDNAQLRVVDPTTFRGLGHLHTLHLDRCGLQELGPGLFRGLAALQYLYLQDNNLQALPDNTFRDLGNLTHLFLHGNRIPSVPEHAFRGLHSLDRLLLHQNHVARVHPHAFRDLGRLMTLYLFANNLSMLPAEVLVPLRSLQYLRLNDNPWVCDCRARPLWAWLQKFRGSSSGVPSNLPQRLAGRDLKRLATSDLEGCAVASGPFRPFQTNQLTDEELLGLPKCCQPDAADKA
Method: (§1) 0.5 μg of a soluble Nogo receptor-1 fusion protein comprising amino acid residues 26-344 of rat Nogo receptor-1 and the hinge and Fc region of the rat IgG1 molecule (sNogoR344-Fc) produced as described below was immobilized on 250 μg of protein-A- or wheatgerm agglutinin-conjugated SPA beads (Amersham Pharmacia Biotech) for 2 hours at 25° C. SPA beads coupled with Fc-sNogoR-1, anti-Nogo receptor-1 mAb and 1 μl ^125I-Nogo66 (Amersham, 2000 Ci/mmol, 1 nM) in 50 μl of the HEPES-buffered incubation medium (10 mM HEPES, pH 7.4, 0.1% bovine serum albumin, 0.1% ovalbumin, 2 mM MgCl2, 2 mM CaCl2 and protease inhibitors) was added to each sample well. After 16 hours, radioactivity was measured in quadruplicate samples using a TopCount® (Packard). IC50 values were calculated from a curve-fit analysis (FIG. 3) (PRISM, GraphPad Software, NJ). In some experiments, we also used AP-ligand conjugates (e.g. AP-Nogo66) and detected binding by monitoring alkaline phosphatase activity. We also assayed the ability of the mAbs to block binding of the ligands MAG-Fc and AP-OM-gp to Nogo receptor-1.
The calculated IC50 for Nogo66 for 7E11 and 1H2 were 400 nM and 60 nM, respectively. The data from ELISAs monitoring mAb-mediated inhibition of binding of the three ligands to Nogo receptor-1 are summarized in Table 6.
We also performed ELISA binding assays using the Fab-phage 14D5.

DRG neurons = test: Neurite outgrowth assay on CNS myelin (Example 5); assay type: cell-based; conditions: P3-4 rat DRG; 15 μg/ml mAb 7E11
Method: To test the ability of the monoclonal and Fab-phage antibodies produced above to lessen the inhibitory effect of CNS myelin on neurons, Lab-Tek® culture slides (4 wells) were coated with 0.1 mg/ml poly-D-lysine (Sigma®). CNS myelin or PBS was spotted as 3 μl drops. Fluorescent microspheres (Polysciences) were added to the myelin/PBS to allow later identification of the drops (Grandpre et al, Nature 403, 2000). Lab-Tek® slides were then rinsed and coated with 10 μg/ml laminin (Gibco™). Dorsal root ganglions (DRG's) from P3-4 Sprague Dawley rat pups were dissociated with 1 mg/ml collagenase type 1 (Worthington), triturated with fire-polished Pasteur pipettes pre-plated to enrich in neuronal cells and finally plated at 23,000 cells/well on the pre-coated Lab-Tek® culture slides. The culture medium was F12 containing 5% heat inactivated donor horse serum, 5% heat inactivated fetal bovine serum and 50 ng/ml MNGF and incubated at 37 °C and 5% CO2 for 6 hours. Fifteen μg/ml of mAb 7E11 was added immediately after plating.
Slides were fixed for 20 minutes with 4% paraformaldehyde containing 20% sucrose and stained for the neuronal marker anti beta-III-tubulin (Covance TUJ1) diluted 1:500. […] 5× digital images were acquired with OpenLab™ software and analysed by using the MetaMorph® software for quantification of neurite outgrowth.

mouse NgR3 = target: T2, mouse NgR3 (Mus musculus, UniProt Q8K0S5); test: Antibody binding to mouse Nogo receptor-3; conditions: species not stated
T2 sequence (Q8K0S5 25-424): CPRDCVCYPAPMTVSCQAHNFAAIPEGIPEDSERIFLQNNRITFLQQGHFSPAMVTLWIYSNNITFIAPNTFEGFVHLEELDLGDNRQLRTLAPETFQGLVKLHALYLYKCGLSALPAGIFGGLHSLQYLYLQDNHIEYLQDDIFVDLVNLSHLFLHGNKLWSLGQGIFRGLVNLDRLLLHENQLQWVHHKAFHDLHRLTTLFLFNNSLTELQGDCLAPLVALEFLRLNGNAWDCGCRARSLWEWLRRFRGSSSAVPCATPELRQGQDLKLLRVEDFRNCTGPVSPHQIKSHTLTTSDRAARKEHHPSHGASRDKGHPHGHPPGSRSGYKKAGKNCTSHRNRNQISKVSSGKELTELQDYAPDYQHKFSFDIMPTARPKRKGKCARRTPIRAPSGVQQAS

[1] = target: T3, sNogoR344-Fc (residues 26-344 of rat Nogo receptor-1) (Rattus norvegicus, UniProt Q99M75, A303T/C287S/C43R/E284G/T53A); test: Inhibition of 125I-Nogo66 binding to sNogoR344-Fc on SPA beads; conditions: curve-fit
T3 construct: amino acid residues 26-344 of rat Nogo receptor-1; made in house
T3 sequence (Q99M75 26-344 C43R/T53A/E284G/C287S/A303T): T1 sequence (Q99M75 26-344 C43R/T53A/E284G/C287S/A303T)
Method: as §1

[2] = target: polypeptide p-617 (SEQ ID NO: 1) (Rattus norvegicus, UniProt Q99M75); test: Specificity ELISA on polypeptide p-617; assay type: binding
Text: To determine the specificity of the monoclonal and Fab-phage antibodies produced in Examples 1 and 2, we performed an ELISA using a panel of Nogo receptor-1 polypeptides. The panel consisted of sNogoR310-Fc (a fusion protein comprising amino acids 26-310 of rat Nogo receptor-1 and a rat Fc fragment), sNogoR344-Fc (see supra), polypeptide p-617 (SEQ ID NO: 1), polypeptide p-618 (a 19-amino acid polypeptide from the LRR7 region of rat Nogo receptor-1; FIG. 2; SEQ ID NO: 11) and polypeptides p-4 and p-5 (polypeptides from the LRR5 and LRRCT regions of Nogo receptor-1, respectively). Ovalbumin and BSA were used as controls.

B1: 7E11: murine monoclonal anti-Nogo receptor-1 antibody, IgG1 kappa, ATCC PTA-4587; immunogen rat Nogo receptor-1 residues 110-125 (antibody, V domains shown)
VH: VQLQESGAELVMPGASVKMSCKASGYTFTDYWMHWVKQRPGQGLEWIGAIDPSDSYSSYNQNFKGKATLTVDGSSSTAYMQLSSLTSEDSAVYYCARRITEAGAWFAYWGQGTTVT
VL: DVVMTQTPLSLPVSLGDQASISCRSSQSLVHSNGNTYLHWYLQKPGQSPKLLIYKVSNRFSGVPDRFSGSGSGTDFTLKISRVDAEDLGVYFCSQSTHVPFTFGGGTKLEIKRADAAPTVSISHH
In the case of B1, the “inhibition of binding of Nogo66 to sNogoR344-Fc” value (Nogo66 + sNogoR344-Fc) is reported as “inhibited binding”, the EC50 (Nogo66 + sNogoR344-Fc; curve-fit analysis) is reported as 1.7 µM and the “protection from myelin-mediated inhibition of neurite outgrowth” value (DRG neurons) is reported as “protected”. The “binding to NgR3” value (mouse NgR3) was “does not bind well”, the IC50 [1] was 0.4 µM and the “binding to polypeptide p-617” value [2] was “specifically bound”.

Reference: patent US20080274112A1, “Nogo Receptor Antagonists” (priority 2003, published 2008)
